Source: patent US20160084841A1, “Method for Predicting Clinical Effect of Immunotherapy” (INTERNATIONAL INSTITUTE OF CANCER IMMUNOLOGY, INC., priority 2013, published 2016)

Legend:
[1] = test system: anti-WT1235 peptide IgG antibody; assay: ELISA using variant WT1 antigen peptide as immobilized antigen to assay anti-WT1235 peptide IgG antibody; type: binding, human; conditions: serum of thymic carcinoma patient given WT1235 peptide; increase in titer detected; FIG. 19
Experimental: WK235-243 (SEQ ID NO: 62) and WT237-243 (SEQ ID NO: 63) were synthesized by GL Biochem (Shanghai) Corporation Ltd. WT1-frg2 (SEQ ID NO: 61) was prepared in the same way as in the aforementioned WT1-frg3 (SEQ ID NO: 57).
The measurement of the antibody titer using WT1-frg2 (SEQ ID NO: 61) was performed in the same way as in the aforementioned WT1-frg3 (SEQ ID NO: 57). The measurement of the antibody titer using WK235-243 (SEQ ID NO: 62) or WT237-243 (SEQ ID NO: 63) was performed in the same way as in the aforementioned WT332-347 (SEQ ID NO: 58), etc.

[2] = test system: anti-WT1126 peptide IgG antibody; assay: ELISA using variant WT1 antigen peptide as immobilized antigen to assay anti-WT1126 peptide IgG antibody; type: binding, human; conditions: serum of pancreatic cancer patient given WT1126 peptide; increase in titer detected; FIG. 20
Experimental: WT126-134 (SEQ ID NO: 65), WK126-134 (SEQ ID NO: 66), WT128-134 (SEQ ID NO: 67), WT126-132 (SEQ ID NO: 68), WT129-134 (SEQ ID NO: 69), WT126-131 (SEQ ID NO: 70), and WT126-130 (SEQ ID NO: 71) were synthesized by GL Biochem (Shanghai) Corporation Ltd. WT1-frg1 (SEQ ID NO: 64) was prepared in the same way as in the aforementioned WT1-frg3 (SEQ ID NO: 57).
The measurement of the antibody titer using WT1-frg1 (SEQ ID NO: 64) was performed in the same way as in the aforementioned WT1-frg3 (SEQ ID NO: 57). The measurement of the antibody titer using WT126-134 (SEQ ID NO: 65), WK126-134 (SEQ ID NO: 66), WT128-134 (SEQ ID NO: 67), WT126-132 (SEQ ID NO: 68), WT129-134 (SEQ ID NO: 69), WT126-131 (SEQ ID NO: 70), or WT126-130 (SEQ ID NO: 71) was performed in the same way as in the aforementioned WT332-347 (SEQ ID NO: 58), etc.

B1: WT1-frg2: long chain peptide (145 aa, SEQ ID NO: 61) containing the whole length (Y2M) of the administered WT1235 peptide (protein)
chain: DPMGQQGSLGEQQYSVPPPVYGCHTPTDSCTGSQALLLRTPYSSDNLYQMTSQLECMTWNQMNLGATLKGVAAGSSSSVKWTEGQSNHSTGYESDNHTTPILCGAQYRIHTHGVFRGIQDVRRVPGVAPTLVRSASETSEKRPFM
[1]
  ability as ELISA antigen to measure anti-WT1235 IgG antibody level in patient's serum: could measure an anti-WT1235 IgG antibody level in patient's serum

B2: WT1-frg1: long-chain peptide (182 aa, SEQ ID NO: 64) containing the whole length of the administered WT1126 peptide (protein)
chain: MGSDVRDLNALLPAVPSLGGGGGCALPVSGAAQWAPVLDFAPPGASAYGSLGGPAPPPAPPPPPPPPPHSFIKQEPSWGGAEPHEEQCLSAFTVHFSGQFTGTAGACRYGPFGPPPPSQASSGQARMFPNAPYLPSCLESQPAIRNQGYSTVTFDGTPSYGHTPSHHAAQFPNHSFKHEDPM
[2]
  ability as ELISA antigen to measure anti-WT1126 IgG antibody level in patient's serum: could measure an anti-WT1126 IgG antibody level in patient's serum
